# Results as given in the supplement of paper PMC9170038.
# Test system: MS2 coat protein
# Assay: apparent KD of MS2 coat protein; higher = weaker reporter binding
# Settings: Eterna round: R107; input ligand: arginine 13.2 mM
# Outline: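 Each design's apparent KD comes from the median of binding-curve fits to its normalised clusters. Those clusters carried RNA switches transcribed on-chip from Illumina sequencing clusters. SNAP-549-labelled MS2 coat protein was titrated onto them in twofold steps (0.7 or 1.5 nM to 3 µM; per step 0.8–1.5 h down to 10–20 min). Conditions were 100 mM Tris-HCl pH 7.5, 80 mM KCl, 4 mM MgCl2, without or with constant ligand.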
row,Sequence,apparent KD of MS2 coat protein
1,AUUUAUUGUCGUGAUACCAGACAUACAUGAGGAUCACCCAUGUUAAGUAACAUUUUUUAGGUCCCUUGGCAGCACUUUUUAAUUA [JR_Nu_SSTheophyB_Sub018],30.2 nM
2,ACUAGCGCACAUGAUACCAGCGACAUGAGGAUCACCCAUGUACGGCGUGUAUCGAAAGGUUGCCCUUGGCAGCAUGAUAGCGCUG [Cebiri],12.6 nM
3,AACUGGGUUCGUGAUACCAGCUCACACAUGAGGAUCACCCAUGUAGUGGGUAAAAUGUGGAGCCCUUGGCAGCACUGUGACCACG [Esria],14.6 nM
4,UUUAUUAUUGACUCGUUAUUGUUUUUGGAUCGAGGACCGGUACGGCCGCCACUCGUGAUAUACAUGAGGAUCACCCAUGUUAGCA [JR_Nu_SSTryptoA_Sub020],19.3 nM
5,GCCGGACUUUCGGCCGCCACUGAGAGAGUCGUGUGAACAUGAGGAUCACCCAUGUAAUAUAUAUACAGGACCGGGAGGGUCCGGC [4.T],12.3 nM
6,UCCAUCGGCGGAAGCCGAUGGUUUACAGAAGGAGCGUAGGAAACUACAGGUAGGUCGCUGGACAUGAGGAUCACCCAUGUGUUUU [SSAA #12],24.4 nM
7,AAUAACAUGAGGAUCACCCAUGUAAAAGAUACCAGAGUGAUGAUCCUCCCUUGGCAGCUUAAUAACGCUAUUGAUUACAAUAGCG [Mat - Same State Theophlline A - Mod of Eli - D6],33.5 nM
8,GCAUCCUAGUCGGCCGCCACUGCAUGUAGAUACCUGCUACAUGAACAUGAGGAUCACCCAUGUAGCAGGACCGGGACUAGGAUGC [(Trp1)-(MT)''-(MT)'-(Ms2)-(Trp2)_Design1],47.4 nM
9,GGCACCAGGAGAAGGAGCGUGAAGACAUGAGGAUCACCCAUGUAGAGGCCCGUACAGGGUUCGCAGGUAGGUCGCUCCUGGUGCC [#1 Same State - Arginine B Attempt #12 (HarryS)],19.3 nM
10,AUUUAUGGUCGUGAUACCAGACAUACAUGAGGAUCACCCAUGUGAAAUAACAUAAUUUAGGUCCCUUGGCAGCACUUUUUAAUUA [JR_Nu_SSTheophyB_Sub020],43.9 nM
11,GGGCCCGGGCCGCGCGCGGCCCGGGCCCAACGAGGACCGGUACGGCCGCCACUCGAACGAGUGGGUACAUGAGGAUCACCCAUGU [Aaa],25.7 nM
12,ACGAACGAUAGUGAUACCAGACGUACAUGAGGAUCACCCAUGUUAUACACAUGGUUUAUUGUCCCUUGGCAGCACGUUAAGUUCG [JR_ExcTheophyB_Sub005],98.5 nM
13,AGGAAGACGAUGGAUACCAGACAACCAGGGAACAUGAGGAUCACCCAUGUGAUUGAAAGGGUCCCUUGGCAGCCAGAAGCCGUUG [theeternabot_sameState_MS2_Theo_B_31],68.5 nM
14,AUAACAUGAGGAUCACCCAUGUAAGCAGAUACCAGCUAGGAAACUAGCCCUUGGCAGCUGCAAGGUGAUCCUGCUGCCAAGGUAU [(M1)-(M2)-(T1)-(T2)-(M)'-(T)'_Design7],117 nM
15,AAAUAAUCUAGUCCACAAUGUGACUCAGAUACCAGUGCAAAGCUACACCCUUGGCAGCUGGUUACAUGAGGAUCACCCAUGUCGU [theeternabot_exclusion_MS2_Theo_A_50],34.3 nM
16,ACAUGAGGAUCACCCAUGUAACGUCUUGAUACCAGACGAGAAGUAGUCCCUUGGCAGCAAAUACGUGAGGGUCACACAUGUGUAA [vvvmullin],13.8 nM
17,AUACAUGAGGCGGCCGCCACUUUACAUGAGGAUCAACAUGAGGAUCACCCAUGUUACAUGUGGAUAAGGACCGGGCCUCAUGUAU [Same State Tryptophan B 2],51.9 nM
18,AUCAUGGCCAUCGAUACCAGCUACAUGAGGAUCACCCAUGUAAACGGCCCGGUGAGAUGUAGCCCUUGGCAGCGAAGGGUCAAGG [Ratimatiqu],12.4 nM
19,UAUUAUCAGUCGGCCGCCACUGACACAUGAGGAUCACCCAUGUAAUUUGGGUUAUAUAUAAAUUACAGGACCGGGACAAAGGCUA [JR_ExcTryptoB_Sub013],114 nM
20,AGCGCGAAUAGAUCCAAAGUUAUUAGUGAGCGAGGACCGGUACGGCCGCCACUCGUGGCUCUACAUGAGGAUCACCCAUGUACAU [theeternabot_exclusion_MS2_Trp_A_10],52.2 nM
21,UUGGUAGGACAGCUCAUAUAAGCAUGUGAUACCAGCUAGAAAACUAGCCCUUGGCAGCACUUUACAUGAGGAUCACCCAUGUCCC [EThA NP+V+V2 #2 +-Same Structure],68.8 nM
22,AUGCCGGGCCGAAGGAGCGCAAUAGAAUGACAUGAGGAUCACCCAUGUGUGUGAUGUGGGUUGCAGGUAGGUCGCGGCCCGGCAU [#12 Exclusion - Arginine B],17.6 nM
23,CGCCGCGGGAGAAGGAGCGCGAUAACAUAACAUGAGGAUCACCCAUGUAAGAAAUUAAUCAUGCAGGUAGGUCGCUCCCGCGGCG [Same State Arginine B GF 4],16.3 nM
24,GCUAGGUCAUCGGCCGCCACUAACGAUGGCUCCGACAUGAGGAUCACCCAUGUGCCACUUGCGCAUAGGACCGGGAUGACCUAGC [SSTB NP+V+V2 #1],17.7 nM
25,UUAUGCAGGUCGGCCGCCACUACACACAUGAGGAUCACCCAUGUAGUUACUGGGUGAAGUGGCAGUAGGACCGGGACCUGCACAC [Brourdmod14],148 nM
26,GGCUGUCAUAGGAGGUGAAAUAUACUCGAAGGAGCGUCAUAGUAGGCAGGUAGGUCGCGAGACAUGAGGAUCACCCAUGUAGAGA [yyumullin],38.9 nM
27,UAAUAAGUACCGGUUCUCAGAUCCUCAUGUCGAGGACCGGUACGGCCGCCACUCGAAACAUGAGGAUCACCCAUGUAAUAAUAAU [#07 Exclusion Tryptophan A],23.5 nM
28,UGUAUGGACUGAAGGAGCGCCUCAAAAUAACAUGAGGAUCACCCAUGUGGCGAAAGCCAAGGGCAGGUAGGUCGCAGUCCAUACU [ArgBX 4 #StaticStem #MS2Late],27.3 nM
29,GGGCAAGAGGGAAGGAGCGUUAGCUGAGUCACAUGAGGAUCACCCAUGUCGCACGUAGUAUGACAGGUAGGUCGCCCUCUACCCU [SS-ArgB15],18 nM

# Same assay, conditions: Eterna round: R107; input ligand: none
row,Sequence,apparent KD of MS2 coat protein
1,GCCGGACUUUCGGCCGCCACUGAGAGAGUCGUGUGAACAUGAGGAUCACCCAUGUAAUAUAUAUACAGGACCGGGAGGGUCCGGC [4.T],12.1 nM
2,UCCAUCGGCGGAAGCCGAUGGUUUACAGAAGGAGCGUAGGAAACUACAGGUAGGUCGCUGGACAUGAGGAUCACCCAUGUGUUUU [SSAA #12],26.5 nM
3,GCAUCCUAGUCGGCCGCCACUGCAUGUAGAUACCUGCUACAUGAACAUGAGGAUCACCCAUGUAGCAGGACCGGGACUAGGAUGC [(Trp1)-(MT)''-(MT)'-(Ms2)-(Trp2)_Design1],58.8 nM
4,GGCACCAGGAGAAGGAGCGUGAAGACAUGAGGAUCACCCAUGUAGAGGCCCGUACAGGGUUCGCAGGUAGGUCGCUCCUGGUGCC [#1 Same State - Arginine B Attempt #12 (HarryS)],18.4 nM
5,GGGCCCGGGCCGCGCGCGGCCCGGGCCCAACGAGGACCGGUACGGCCGCCACUCGAACGAGUGGGUACAUGAGGAUCACCCAUGU [Aaa],27 nM
6,AUAACAUGAGGAUCACCCAUGUAAGCAGAUACCAGCUAGGAAACUAGCCCUUGGCAGCUGCAAGGUGAUCCUGCUGCCAAGGUAU [(M1)-(M2)-(T1)-(T2)-(M)'-(T)'_Design7],233 nM
7,AUACAUGAGGCGGCCGCCACUUUACAUGAGGAUCAACAUGAGGAUCACCCAUGUUACAUGUGGAUAAGGACCGGGCCUCAUGUAU [Same State Tryptophan B 2],180 nM
8,AUCAUGGCCAUCGAUACCAGCUACAUGAGGAUCACCCAUGUAAACGGCCCGGUGAGAUGUAGCCCUUGGCAGCGAAGGGUCAAGG [Ratimatiqu],16.5 nM
9,AUGCCGGGCCGAAGGAGCGCAAUAGAAUGACAUGAGGAUCACCCAUGUGUGUGAUGUGGGUUGCAGGUAGGUCGCGGCCCGGCAU [#12 Exclusion - Arginine B],42.1 nM
10,CGCCGCGGGAGAAGGAGCGCGAUAACAUAACAUGAGGAUCACCCAUGUAAGAAAUUAAUCAUGCAGGUAGGUCGCUCCCGCGGCG [Same State Arginine B GF 4],19.5 nM
11,GCUAGGUCAUCGGCCGCCACUAACGAUGGCUCCGACAUGAGGAUCACCCAUGUGCCACUUGCGCAUAGGACCGGGAUGACCUAGC [SSTB NP+V+V2 #1],15 nM
12,UUAUGCAGGUCGGCCGCCACUACACACAUGAGGAUCACCCAUGUAGUUACUGGGUGAAGUGGCAGUAGGACCGGGACCUGCACAC [Brourdmod14],470 nM
13,GGCUGUCAUAGGAGGUGAAAUAUACUCGAAGGAGCGUCAUAGUAGGCAGGUAGGUCGCGAGACAUGAGGAUCACCCAUGUAGAGA [yyumullin],53.9 nM
14,UGUAUGGACUGAAGGAGCGCCUCAAAAUAACAUGAGGAUCACCCAUGUGGCGAAAGCCAAGGGCAGGUAGGUCGCAGUCCAUACU [ArgBX 4 #StaticStem #MS2Late],26.4 nM
15,GGGCAAGAGGGAAGGAGCGUUAGCUGAGUCACAUGAGGAUCACCCAUGUCGCACGUAGUAUGACAGGUAGGUCGCCCUCUACCCU [SS-ArgB15],18.1 nM

# Same assay, conditions: Eterna round: R107; input ligand: theophylline 20 uM
row,Sequence,apparent KD of MS2 coat protein
1,AUUUAUUGUCGUGAUACCAGACAUACAUGAGGAUCACCCAUGUUAAGUAACAUUUUUUAGGUCCCUUGGCAGCACUUUUUAAUUA [JR_Nu_SSTheophyB_Sub018],36.1 nM
2,ACUAGCGCACAUGAUACCAGCGACAUGAGGAUCACCCAUGUACGGCGUGUAUCGAAAGGUUGCCCUUGGCAGCAUGAUAGCGCUG [Cebiri],26.1 nM
3,AACUGGGUUCGUGAUACCAGCUCACACAUGAGGAUCACCCAUGUAGUGGGUAAAAUGUGGAGCCCUUGGCAGCACUGUGACCACG [Esria],25.4 nM
4,UUUAUUAUUGACUCGUUAUUGUUUUUGGAUCGAGGACCGGUACGGCCGCCACUCGUGAUAUACAUGAGGAUCACCCAUGUUAGCA [JR_Nu_SSTryptoA_Sub020],22 nM
5,GCCGGACUUUCGGCCGCCACUGAGAGAGUCGUGUGAACAUGAGGAUCACCCAUGUAAUAUAUAUACAGGACCGGGAGGGUCCGGC [4.T],18.3 nM
6,UCCAUCGGCGGAAGCCGAUGGUUUACAGAAGGAGCGUAGGAAACUACAGGUAGGUCGCUGGACAUGAGGAUCACCCAUGUGUUUU [SSAA #12],22.4 nM
7,AAUAACAUGAGGAUCACCCAUGUAAAAGAUACCAGAGUGAUGAUCCUCCCUUGGCAGCUUAAUAACGCUAUUGAUUACAAUAGCG [Mat - Same State Theophlline A - Mod of Eli - D6],98.7 nM
8,GCAUCCUAGUCGGCCGCCACUGCAUGUAGAUACCUGCUACAUGAACAUGAGGAUCACCCAUGUAGCAGGACCGGGACUAGGAUGC [(Trp1)-(MT)''-(MT)'-(Ms2)-(Trp2)_Design1],63.6 nM
9,GGCACCAGGAGAAGGAGCGUGAAGACAUGAGGAUCACCCAUGUAGAGGCCCGUACAGGGUUCGCAGGUAGGUCGCUCCUGGUGCC [#1 Same State - Arginine B Attempt #12 (HarryS)],27.3 nM
10,AUUUAUGGUCGUGAUACCAGACAUACAUGAGGAUCACCCAUGUGAAAUAACAUAAUUUAGGUCCCUUGGCAGCACUUUUUAAUUA [JR_Nu_SSTheophyB_Sub020],63.6 nM
11,GGGCCCGGGCCGCGCGCGGCCCGGGCCCAACGAGGACCGGUACGGCCGCCACUCGAACGAGUGGGUACAUGAGGAUCACCCAUGU [Aaa],41.8 nM
12,ACGAACGAUAGUGAUACCAGACGUACAUGAGGAUCACCCAUGUUAUACACAUGGUUUAUUGUCCCUUGGCAGCACGUUAAGUUCG [JR_ExcTheophyB_Sub005],274 nM
13,AGGAAGACGAUGGAUACCAGACAACCAGGGAACAUGAGGAUCACCCAUGUGAUUGAAAGGGUCCCUUGGCAGCCAGAAGCCGUUG [theeternabot_sameState_MS2_Theo_B_31],173 nM
14,AUAACAUGAGGAUCACCCAUGUAAGCAGAUACCAGCUAGGAAACUAGCCCUUGGCAGCUGCAAGGUGAUCCUGCUGCCAAGGUAU [(M1)-(M2)-(T1)-(T2)-(M)'-(T)'_Design7],187 nM
